{"source": "paper PMC2820514", "origin": "cited, not measured here", "target": "CaMKII monomer (UniProt Q9UQM7)", "note": "pKd: −log10 of the molar value."}
{"substance": "CaMKII monomer (from UniProt Q9UQM7)", "values": [{"measurement": "pKd", "result": 5.89}]}
